One may read the IC50 as the concentration that gives 50% inhibition.

21 sequences from the Immune Epitope Database (IEDB) can be followed below.

For the first test, the target named is HLA-A*02:01. As to the kind of experiment: IEDB peptide-MHC binding, purified MHC/competitive/radioactivity; ≥ and ≤ were set here for values at or beyond the usual limits of such assays. As to conditions: source organism: Bordetella pertussis.
ALMLACTGL: the IC50 is 10800 nM.

For the sequence YQTYTEWSV, the IC50 was 384 nM.

For LAMPWTFHA, the concentration for half-maximal inhibition (IC50) was found to be 1170 nM.

With VLAPRLYLT, the half-maximal inhibitory concentration (IC50) came to 7980 nM.

For the sequence LLNAGGTLL, the IC50 was determined as 2570 nM.

The next test addresses HLA-B*07:02. The test is described as above. Particulars: source organism: Bordetella pertussis.
In the case of SPRRARRAL, the IC50 was 13.8 nM.

Turning to APQAAPLSI, the 50% inhibitory concentration (IC50) turned out to be 2210 nM.

The next test deals with HLA-B*35:01. The description is as above. Particulars: source organism: Bordetella pertussis.
For the sequence AAGFDPEVQ, the IC50 was found to be 32.7 µM.

Take LAAIASAAH: the IC50 came to 49.8 µM.

For LAPTVGVAF, the IC50 came out at 7.6 µM.

For the sequence LANDGTIVI, the IC50 is 5.87 µM.

In a further test the target is HLA-B*44:03. Described as above. Particulars: source organism: Bordetella pertussis.
Consider IESKISQSV, for which the IC50 is 39.9 µM.

Take QQVQVLQRQ: the IC50 amounted to 15.8 µM.

Another test concerns the target HLA-B*53:01. Described as above. As to conditions: source organism: Bordetella pertussis.
TPFDIKLKE: the IC50 came out at 34.7 µM.

Take GLYQTYTEW: the IC50 was 69.9 µM.

As for TPFIIKLKD, the IC50 was at least 78.2 µM.

For the sequence YYDYEDATF, the IC50 turned out to be 69.9 µM.

Consider TFTGKVTNG, for which the IC50 is 39.9 µM.

APQAAPLSI: the IC50 is 42.4 µM.

Turning to LAWALMLAC, the IC50 turned out to be 6.64 µM.

The target in a further test is HLA-B*57:01. The test is described as above. Particulars: source organism: Bordetella pertussis.
Take GLYQTYTEW: the IC50 is 41.4 µM.

On to ITNKRAALI, for which the IC50 came to 40 µM.

For the sequence ISVRVHVSK, the IC50 was 2.74 µM.
